According to the nanobody polyreactivity screen of Harvey et al. (2022):

Assay: yeast display, Sf9 membrane polyspecificity reagent, FACS + sequencing; frameworks hold sequencing errors
How it was run: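 In a synthetic yeast display library (Saccharomyces cerevisiae BJ5465), nanobody expression was induced with galactose for 36–48 hours. FACS gates were set low and high (top ~1%) using anti-HA fluorescence for expression and streptavidin fluorescence for binding of the Sf9 membrane reagent. Each polyreactivity label is drawn from the gate of origin.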

Sequence	polyreactivity (PSR sort gate)
QVQLVESGGGLDQAGGSLRLSCAASGYTFNLNAMGWYRQAPGKERELVAAISSGDSTDYADSVKGRFTISRDNAKNTVYLQMHSLQPEDTAVYYCNADLPVVWRRDFWGDLYWGQATQVTVSS	low polyreactivity
QVQLVESGGGLDQAGGSLRLSCAASGYTYGTYDMRWYRQAPGKERELVAAISIGGSTNYADSVKGRFTISRDNAKNTVYLQMNSLKPEDTAVYYCAAEVNVGTLLLSVIVEDGDYWGQGTQVTVSS	low polyreactivity
QVQLVESGGGLDQAGGSLRLSCAAYGVPSLTMNMGWYRQAPGKERELFATIYSGGSTYYADSVKWRFTISRDNAKNTVYLQMNRLKPEDTAVYYCAARQSYYYSRSYIRGDYWGQGTQVTVSS	high polyreactivity
QVQLVESGGGLDQAGGSLRLSSAASGFIFDGNAMGWYRQAPGKERELVASITKSSGRTYYADSVKGRFTISRDNAKNTVYLQMNSLKPEDTAVYYCNKARRSVQPYGRQYDYWGQGTQVTVSS	high polyreactivity
QVQLVESGGGLDQAGGSLRLSSAASGRIFSKSAMGLYRQAPGKETELVAAMTSGGRTYYADSVKGRFTISRDIAKNTVYLQMNSLKPEDTAVYYCAARYVQVVRKFGYWVQGTQVTVSS	high polyreactivity
QVQLVESGGGLDQAGGSLRLTCADSGSIFIRNAMGWYRHAPGKESELVAAISGSGSSTYYADSVKGRFTISRDNAKNTVYLQMNSLKPEDTAVYYCNTDRTHSYQYGGYDYWGQGTQVTVSS	low polyreactivity
QVQLVESGGGLDQAGGSLSLSCAASGIIFAGNAMGWYRQPPGKERELVAAISSNGGSTYYADSVKGRFTISRDNAKNTVYLQMNSLKPEDTAVYYCAADRVYWGRVQGYYWGQGTQVTVSS	low polyreactivity
QVQLVESGGGLDQAGVSLRLSCAASGSTFSANAMGWFRQAPGKERELVAAISSGDITYYADSVKGRFTISRDNAKNTVYLQMNSLKPEDTAVYYCAKYTRPTGNVDDGFEYWGQGTQVTVSS	low polyreactivity
QVQLVESGGGLDQARGSLRLSCAASGLTFASNAMGWYRQAPGKERELVAAISWSDGSTYYADSVKGRFTISRDNAKNTVYLQMNSLKPEDTAVYYCAAEPPGFRTSRVGYWGQGTQVTVSS	low polyreactivity
QVQLVESGGGLDQARGSLRLSCAASGRTSLRYAMGWYRQAPWKERELVAAITSSGATTYYADSVKGRFTISRDNAKNTVYLQMNSLKPEDTAVYYCAAVYSAKRGSGGFGYWGQGTQVTVSS	high polyreactivity
QVQLVESGGGLDQARGTLRLSCAASGSTILGNAMGWYRHAPGKERELVAGITSGGTTNYADSVKGRFTISRVNAKNNVYLQMTSLKPEDTSVYYCNAGGHLEMNYWGKGTQVTVSS	low polyreactivity
QVQLVESGGGLDQEGVRLRLSCAASGRTFRIYAMGLYRQAPGNERELVAAISSDASTSYADSVKGRFTISRDNPKNTVYFQMNSLKPEATAVYYSAADPGPYFDWGYDFWGQGTQVTVSS	low polyreactivity
QVQLVESGGGLEQAGGSLRISCAASVSTVRFNAMGWYIQEPGKERQLVAVIRWRGGTTYYADSVKGRFTISRDNAKNTVYLQMNSLKPEDPAVYYCNADYWFSYTWHGSYTVGYWGQGTQVTVSS	high polyreactivity
QVQLVESGGGLEQAGGSLRLSCAASGRTFYYYAMGWYRQAPGKERELVAAIRWRGGRTYADSVKGRFTISRDNAKNTVYLQMKSLKPEDTAVYYCAVDSFYRHASLYDYWGQGTQVTVSS	high polyreactivity
QVQLVESGGGLFHAGGSLRLICAASGTTFKYYAMGSYRQAPAIEREFVAAISTRTGNTYYADSVKGRFTISRDNAKNTVYLQMNSLKPEDTAVYYCAARPRQGRGYDFYYWGQGTQVTVSS	high polyreactivity
QVQLVESGGGLFQAAGSLRLSCAASGLTFAYNAMGWYRQAPGKERELDAEISKRGGSTFYADSVKGRFTLSHVNAKNTVYLQMNSLKPEDTAVYYCARGSYPYRSFWLTSDDWGQGTQVTVSS	high polyreactivity

Sequence	polyreactivity (PSR sort gate)
QVQLVESGGGLFQAGGILRLSCAASGFIFSSYAMGLYRLAPGKERELVAAISRSGGRTYYADSVKGRFTISRDYAKNTVYLQMNSLKPEDTAVYYCAARWYGLYLQRYDYWGQGTQVTVSS	high polyreactivity
QVQLVESGGGLFQAGGSHRLSCAASGSTFRVYAMGWYRHAPGKERELVADISRSVTRTYYADSVKGRFTISRDNSKNTFYLQMNSLIPEETAVYYCAAVSYYRRWQTAYYSWGQGTQVTVSS	high polyreactivity
QVQLVESGGGLFQAGGSLGLSCAASGSTFSKYAMGWSRQAPGKERELVAAISSGGRTNYADSVKGRFTISRDNAKNTVYLHMNSLKPEDTAVYDCAALWGYWAYYYWGQGTQVTVSS	low polyreactivity
QVQLVESGGGLFQAGGSLPVSCAASGFIFDDYAMGWYRQAPGKERELVAAISSGGSTNYADSVKGRFTISRDNAKNTVYLQLNSLKPEDSAVYYCADRAGYQFSYNYWGQGTQVTVSS	high polyreactivity
QVQLVESGGGLFQAGGSLRFSCAASGIIFSTNAMGWYRQAPGKERELVATITSSSGRTYYADSVKGRFTISRDNAKNTLYLQMNSLKPEDTAVYYCATGGVLIKGHYYWGQGTQVTVSS	low polyreactivity
QVQLVESGGGLFQAGGSLRIICAASGSIFGAYAMGWYRQAPGKERELVAGIRRAGDSTYYADSVKGRFTISRDYAKNTVYLLMNCMKPEDTAVYYCAAYLYLEYYYRGQGTQVTVSS	low polyreactivity
QVQLVESGGGLFQAGGSLRITCSPSGFIFHGYAMGWYRQAPGKERELVAAISTGTNTNYADSLKGRFTISRDNAKNTVYIQMNRLKPEDTAVYYCNARSADTWYTSRRFYYWGQGTQVTVSS	low polyreactivity
QVQLVESGGGLFQAGGSLRLSCAASGFIFTGYAMGWYRQAPGKASELVAVISYSAGSTYYADSVKGRFTISRDNAKNTVYLQMNSLKPEDTAVYYCAADHGKNLTYDYWGQGTQVTVSS	high polyreactivity
QVQLVESGGGLFQAGGSLRLSCAASGFTFDYYAMGWYRQAPGKERELVADINRSGGSSYYADSVKGRFTISRDNAKNTVYLQMNSLKPEDTAVYYCNARVTPFFYHYPRDYYYWGQGTQVTVSS	high polyreactivity
QVQLVESGGGLFQAGGSLRLSCAASGFTFRANAMGWYRQAPGKERELVAVITGSGRTYYADSVKGRFTISRDNAKNTVYLQMNSLKPEDTAVYYCAARAAYRVSSPGYDSWGQGTQVTVSS	high polyreactivity
QVQLVESGGGLFQAGGSLRLSCAASGGIFFYYAMGGYRQAPGKERELVAAIRTNGGTTYYADSVKGRFTISRDNAKNTVYLQRNRLKTEDTAVYYCPAQPGGYYVRGEFDYWGQGTQVTLSS	low polyreactivity
QVQLVESGGGLFQAGGSLRLSCAASGIIFQRNDMGWYRQAPGKERELVANIRDGGITYADSVKGRFTISRDNAKNTVYLQMNSLKPEDTAVYYCARDDTSPGYCDQSSNAAYYYWGQGTQVTVSS	low polyreactivity
QVQLVESGGGLFQAGGSLRLSCAASGIIFQSYDMAWYRQAPGKERELVAAISRGGGSTYYADSVKGRFTISRDNAKNTVYLQMNSLIPEDTAVYYCAADYRGEYDYWGQGTQVTVSS	low polyreactivity
QVQLVESGGGLFQAGGSLRLSCAASGITFHRYDMVWYRQAPGKERELVADITWCGGSTYYADSVKGRFTISRDNAKNTVYLQMNSLKPEDTAVYYCAADASTYTDTPYDYWGQGSQVTVSS	low polyreactivity
QVQLVESGGGLFQAGGSLRLSCAASGITFPDYAMGWYRQAPGKERELVATISSSGGNTYYADSVKGRFTISRDNAKNTVYLQMNSLKPEDTAVYYCATVSYYLGYDYWGQGTQVTVSS	low polyreactivity
